In assay [1] the target is T1, plasmin (Homo sapiens, UniProt P00747).
T1 construct: human Lys-plasmin which is prepared from homogeneous Glu-plasminogen using uPA; purchased Haematologic Technologies, Inc. (Essex Junction, VT)
The assay is described as follows: Michaelis-Menten kinetics of plasmin-mediated cleavage of fluorogenic peptide substrate. In kind it is biochemical. The conditions noted are these: plasmin 5 nM; VHHs 1 μM, BPTI 3 nM, TXA 7.86 mg/ml; w/o ligand 51.8. Here is the method: Subsequently, 50 μl of the fluorogenic substrate (3.16-3,160 μM final concentration in assay buffer) was added. Substrate hydrolysis rates were monitored by kinetic measurements using the Synergy 2 microplate reader. Apparent Michaelis-Menten constants (Km) and the turn-over number (kcat) values for substrate hydrolysis were calculated from best fit values of the Michaelis-Menten equation and the catalytic efficiencies were expressed as ratios of kcat/Km.
CI, confidence interval. ^a The turnover number (kcat) was calculated using Vmax values extracted from Michaelis-Menten least squares fit.

Assay [2] concerns citrate-anticoagulated whole blood. The assay is described as follows: Rotational thrombelastometry clot lysis in tPA-spiked whole blood. In kind it is biochemical. The conditions noted are these: tPA-spiked whole blood. An excerpt: To further test the fibrinolysis-activating properties of VHHs in an ex-vivo model of hyperfibrinolysis, a whole blood based assay can be used whereat citrate-anticoagulated whole blood in the presence of VHHs is spiked with tPA and clot formation and the fibrinolysis rate of the formed clot monitored by thrombelastometry after initiation of clotting by addition of CaCl2) solution containing recombinant TF.
FIG. 4. Influence of VHHs on endogenous fibrinolysis. (A) Citrate-anticoagulated whole blood was mixed with VHHs A11 or C5 and with tPA to achieve a final concentration of 0.5 μg/ml and clot formation was induced by addition of CaCl2) (0.2 M). (B) Lysis index at 60 min(C) Maximum lysis rates, and (D) lysis onset time were recorded. Mean values and SD were calculated out of three measurements.
(§1) The impact of VHHs on the fibrinolytic activity in plasma and whole blood was monitored using rotational thrombelastometry using the ROTEM delta system (TEM Innovations Ltd., Munich, Germany). […] After addition of 0.1 μg/ml tPA, coagulation was initiated by addition of recombinant tissue factor (Dade Innovin, Siemens Healthcare, Marburg, Germany) dissolved 1:100 in calcium chloride (0.2 M). The viscoelasticity of the formed clot was measured in terms of key parameters including clotting time, maximal clot firmness, maximum clot elasticity, maximum lysis, lysis index after 60 minutes, and lysis onset time.

The test system of assay [3] is citrate-anticoagulated pooled normal human plasma. The assay is described as follows: Rotational thrombelastometry clot formation parameters in plasma. The assay is classed as biochemical. The conditions noted are these: VHHs or BPTI 2.4 μM, TXA 2.4 μg/ml; tPA 0.1 μg/ml. As for the experimental part: FIG. 10. The impact of VHHs on the clot formation parameters in plasma monitored by rotational thrombelastometry. […] After addition of tPA to reach a final concentration of 0.1 μg/ml, coagulation was initiated by addition of recombinant tissue factor (Dade® Innovin®) dissolved 1:100 in calcium chloride solution (0.2 M). The viscoelasticity of the formed clot was measured in terms of (A) clotting time, (B) maximum clot firmness, and (C) maximum clot elasticity. A non-binder VHH (GFP-enhancer VHH) was used as negative control. Mean values and SD were calculated out of three measurements.
as §1

Another assay concerns the target T2, plasminogen (Homo sapiens, UniProt P00747).
T2 construct: Plasma derived human Glu-plasminogen; purchased Haematologic Technologies, Inc. (plasminogen); Boehringer Ingelheim (tPA)
The assay is described as follows: Plasmin generation assay (tPA-mediated plasminogen activation, purified system). In kind it is biochemical. The conditions noted are these: at the assessed / higher concentrations. As for the experimental part:
In order to assess the influence of VHHs on tPA-mediated plasminogen activation, plasminogen was preincubated with increasing concentrations of VHHs. After addition of tPA, plasmin generation was measured over time using a fluorogenic plasmin peptide substrate.
FIG. 5. Influence of VHHs on tPA-mediated plasminogen activation. […] After addition of tPA (10 nM final concentration) plasmin generation was measured over time using the fluorogenic plasmin assay. The data are presented as mean±SD of three independent measurements.
Plasminogen (50 nM) was incubated with VHHs (2 μM to 0.2 μM) for 30 min at 37° C. in assay buffer. Subsequently, 20 μl of 50 nM tPA was added to the mixture and incubated at 37° C. After 3 hours of incubation at 37° C., 50 μl of the mixture were transferred to the wells of black F16 Fluoronunc modules and after addition of 50 μl of the plasmin-specific fluorogenic substrate (800 μM) fluorescence intensities were measured at λex of 360 nm and λem of 460 nm using the Synergy 2 microplate reader.

For assay [4], the target named is T1, plasmin. The assay is described as follows: Activated factor V-inactivation assay (prothrombinase assay). In kind it is biochemical. Here is the method: FIG. 6. (A) Influence of VHHs on plasmin-mediated FVa cleavage. Plasmin (1.5 nM) was incubated with increasing concentrations of VHHs for 30 min at 37° C. After addition of FVa (30 pM) and further incubation for 30 min, FXa (0.52 pM), prothrombin (10 nM) and a fluorogenic thrombin substrate (100 μM) were added and the FVa-dependent thrombin generation was measured. The FVa inactivation rate measured in the absence of VHHs or plasmin inhibitors was set as 100%. […] The data are presented as mean±SD of two independent measurements.
Plasmin-mediated inactivation of activated factor V (FVa) was measured using a prothrombinase assay as recently described (Hamedani 2020). Briefly, 1.5 nM plasmin in assay buffer (20 mM Tris-HCl, 137 mM NaCl, 10 mg/ml phospholipids, 5 mM CaCl2, 1 mg/ml BSA, pH 7.4) was preincubated with VHHs (0.1 nM-10 μM final concentrations) for 30 min at 37° C. Then, 60 μl of the mixture were mixed with 60 μl of […] FVa. After further incubation for 30 min, 25 μl of the reaction mixture were mixed with 50 μl of 1.3 μM human FXa and 100 μM fluorogenic thrombin substrate (Boc-Asp(OBzl)-Pro-Arg-AMC) and 50 μl of 10 nM human prothrombin. Thrombin catalyzed substrate hydrolysis was monitored at λex of 360 nm and λem of 460 nm using the Synergy 2 microplate reader.

The target of assay [5] is T1, plasmin. In words: Stability of plasmin (autocatalytic degradation) in activation buffer. The conditions noted are these: 100 mM TXA or lysine in buffer. In kind it is biochemical.
The target in assay [6] is T3, human plasmin (human, UniProt P00747 97-580; P00747 581-810). The assay is described as follows: cell-based or functional assay.
Assay [7] deals with T3, human plasmin. The assay is described as follows: cell-based or functional assay. This is another data set of the same source.
The target in assay [8] is T3, human plasmin. In words: BLI (BLItz), His-tagged VHH on anti-HIS biosensor.
The target of a further assay is T4, human plasminogen (human, UniProt P00747 20-810).
T4 construct: mature; Purchased plasma-derived Glu-plasminogen or in-house plasma-purified plasminogen; also called human PLG; plasma derived human Glu-plasminogen
In words: BLI (BLItz), His-tagged VHH on anti-HIS biosensor.

The next assay addresses T5, mouse plasminogen (mouse, UniProt P20918 20-812).
T5 construct: mature; also called mouse Glu-plasminogen
In words: BLI (BLItz), His-tagged VHH on anti-HIS biosensor.

The next assay addresses T6, mouse plasmin (mouse, UniProt P20918 98-581; P20918 582-812).
T6 construct: domain: heavy chain or A-chain;domain: light chain that contains the serine protease domain; Purchased from Haematologic Technologies
The assay is described as follows: BLI (BLItz), His-tagged VHH on anti-HIS biosensor.

In assay [9] the target is T7, tissue plasminogen activator (recombinant tPA, Actilyse) (UniProt P00750 36-562).
T7 construct: Actilyse is recombinant human tPA (alteplase)
In words: BLI (BLItz), His-tagged VHH on anti-HIS biosensor.

In assay [10] the target is T3, human plasmin. The assay is described as follows: competition ELISA: A11 coated on the plate (10 µg/ml), plasmin 10 nM with free A11 (self-competition); bound plasmin read by hydrolysis of a fluorogenic substrate. As for the experimental part:
(§2) FIG. 2. VHHs competition ELISA. […] Data represent the mean±SD of two measurements.
(§3) To assess the competition of VHHs for similar or overlapping binding sites on the plasmin molecule, a competition ELISA was performed. Microtiter (96-well) plates were coated with VHHs (10 μg/ml in coating buffer, 100 μl/well) at 2-8° C. overnight. Wells were washed and non-specific protein-binding sites were blocked with 20 mg/ml bovine serum albumine (BSA) for 2 h at RT. After removing the blocking buffer, wells were overlaid with a reaction mixture containing plasmin (10 nM) and VHHs (0.316 nM-31.6 μM) in buffer (20 mM HEPES, 154 mM NaCl, BSA 1 mg/ml, pH 7.4) for 30 min at RT. After washing the amount of bound plasmin was quantified through hydrolysis rates of the fluorogenic plasmin substrate (300 μM, 100 μl/well). The fluorescence intensity measured in the absence of free VHHs was set as 100%.
(ELISA stands for enzyme-linked immunosorbent assay.)

Assay [11] addresses T3, human plasmin. The assay is described as follows: competition ELISA: C5 coated on the plate (10 µg/ml), plasmin 10 nM with free A11 as competitor of immobilized C5; bound plasmin read by hydrolysis of a fluorogenic substrate. As for the experimental part: as §2, §3
For assay [12], the target named is T3, human plasmin. The assay is described as follows: competition ELISA: C5 coated on the plate (10 µg/ml), plasmin 10 nM with free C5 (self-competition); bound plasmin read by hydrolysis of a fluorogenic substrate. Here is the method:
as §2, §3

For assay [13], the target named is T3, human plasmin. In words: competition ELISA: A11 coated on the plate (10 µg/ml), plasmin 10 nM with free C5 as competitor of immobilized A11; bound plasmin read by hydrolysis of a fluorogenic substrate. Here is the method:
as §2, §3

T1 sequence (P00747 97-580 limits assumed): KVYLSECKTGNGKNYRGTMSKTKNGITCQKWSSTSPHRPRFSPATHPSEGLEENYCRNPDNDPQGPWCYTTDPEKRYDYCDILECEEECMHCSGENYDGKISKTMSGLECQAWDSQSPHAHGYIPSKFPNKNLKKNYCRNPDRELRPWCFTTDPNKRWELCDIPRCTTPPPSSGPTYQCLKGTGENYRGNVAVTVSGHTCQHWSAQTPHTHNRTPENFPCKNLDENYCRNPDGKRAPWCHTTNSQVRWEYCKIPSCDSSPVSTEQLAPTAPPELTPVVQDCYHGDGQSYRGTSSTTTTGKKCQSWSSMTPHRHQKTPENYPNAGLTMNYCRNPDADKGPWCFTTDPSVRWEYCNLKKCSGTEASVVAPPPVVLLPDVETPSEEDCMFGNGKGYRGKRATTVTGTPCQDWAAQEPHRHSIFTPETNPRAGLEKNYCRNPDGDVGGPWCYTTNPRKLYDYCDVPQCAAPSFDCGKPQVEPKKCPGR
T1 sequence (P00747 581-810 limits assumed): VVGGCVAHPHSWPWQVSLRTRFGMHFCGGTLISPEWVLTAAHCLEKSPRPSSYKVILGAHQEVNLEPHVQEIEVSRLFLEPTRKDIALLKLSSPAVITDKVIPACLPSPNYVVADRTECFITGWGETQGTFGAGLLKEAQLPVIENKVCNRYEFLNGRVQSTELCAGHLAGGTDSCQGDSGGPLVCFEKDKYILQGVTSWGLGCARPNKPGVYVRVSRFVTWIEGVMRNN
T3 sequence (P00747 97-580 limits assumed, chain 1 of 2): as the sequence (P00747 97-580 limits assumed) above
T3 sequence (P00747 581-810 limits assumed, chain 2 of 2): as the sequence (P00747 581-810 limits assumed) above
T7 sequence (P00750 36-562 limits assumed): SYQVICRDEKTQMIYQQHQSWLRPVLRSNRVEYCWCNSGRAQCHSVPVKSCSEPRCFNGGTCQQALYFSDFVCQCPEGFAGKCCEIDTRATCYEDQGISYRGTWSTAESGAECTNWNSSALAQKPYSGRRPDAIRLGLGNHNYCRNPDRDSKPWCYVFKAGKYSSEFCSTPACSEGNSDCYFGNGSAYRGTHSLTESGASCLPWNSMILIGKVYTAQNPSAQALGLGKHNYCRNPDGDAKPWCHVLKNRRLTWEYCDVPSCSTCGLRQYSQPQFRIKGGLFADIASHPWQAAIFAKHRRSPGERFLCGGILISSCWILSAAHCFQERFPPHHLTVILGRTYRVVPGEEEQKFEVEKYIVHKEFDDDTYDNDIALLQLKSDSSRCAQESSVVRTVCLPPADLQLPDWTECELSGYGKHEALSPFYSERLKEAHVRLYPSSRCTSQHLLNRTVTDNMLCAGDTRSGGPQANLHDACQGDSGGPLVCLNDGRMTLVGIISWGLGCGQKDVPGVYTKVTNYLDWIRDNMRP
T5 sequence (P20918 20-812 limits assumed): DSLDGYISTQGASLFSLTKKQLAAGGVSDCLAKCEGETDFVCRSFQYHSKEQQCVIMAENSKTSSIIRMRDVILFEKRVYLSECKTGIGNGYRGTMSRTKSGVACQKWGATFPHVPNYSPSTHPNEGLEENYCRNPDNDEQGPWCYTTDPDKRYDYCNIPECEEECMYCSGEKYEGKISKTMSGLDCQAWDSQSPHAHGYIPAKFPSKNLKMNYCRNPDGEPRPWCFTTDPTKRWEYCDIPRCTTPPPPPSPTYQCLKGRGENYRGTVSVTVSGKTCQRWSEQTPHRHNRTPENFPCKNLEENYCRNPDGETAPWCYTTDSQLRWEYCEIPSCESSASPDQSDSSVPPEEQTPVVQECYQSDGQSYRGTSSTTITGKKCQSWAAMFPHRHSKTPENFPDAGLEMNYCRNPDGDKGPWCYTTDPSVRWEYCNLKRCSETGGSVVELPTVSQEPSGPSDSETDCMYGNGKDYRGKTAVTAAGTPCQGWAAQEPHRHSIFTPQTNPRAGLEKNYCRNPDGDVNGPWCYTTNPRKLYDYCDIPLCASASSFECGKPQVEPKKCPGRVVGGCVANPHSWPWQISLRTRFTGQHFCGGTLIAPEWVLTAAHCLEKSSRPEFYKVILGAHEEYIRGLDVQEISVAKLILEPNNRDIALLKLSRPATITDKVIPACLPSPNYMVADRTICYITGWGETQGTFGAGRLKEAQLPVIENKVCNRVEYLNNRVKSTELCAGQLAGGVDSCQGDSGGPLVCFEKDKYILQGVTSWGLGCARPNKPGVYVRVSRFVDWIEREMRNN
T4 sequence (P00747 20-810 limits assumed): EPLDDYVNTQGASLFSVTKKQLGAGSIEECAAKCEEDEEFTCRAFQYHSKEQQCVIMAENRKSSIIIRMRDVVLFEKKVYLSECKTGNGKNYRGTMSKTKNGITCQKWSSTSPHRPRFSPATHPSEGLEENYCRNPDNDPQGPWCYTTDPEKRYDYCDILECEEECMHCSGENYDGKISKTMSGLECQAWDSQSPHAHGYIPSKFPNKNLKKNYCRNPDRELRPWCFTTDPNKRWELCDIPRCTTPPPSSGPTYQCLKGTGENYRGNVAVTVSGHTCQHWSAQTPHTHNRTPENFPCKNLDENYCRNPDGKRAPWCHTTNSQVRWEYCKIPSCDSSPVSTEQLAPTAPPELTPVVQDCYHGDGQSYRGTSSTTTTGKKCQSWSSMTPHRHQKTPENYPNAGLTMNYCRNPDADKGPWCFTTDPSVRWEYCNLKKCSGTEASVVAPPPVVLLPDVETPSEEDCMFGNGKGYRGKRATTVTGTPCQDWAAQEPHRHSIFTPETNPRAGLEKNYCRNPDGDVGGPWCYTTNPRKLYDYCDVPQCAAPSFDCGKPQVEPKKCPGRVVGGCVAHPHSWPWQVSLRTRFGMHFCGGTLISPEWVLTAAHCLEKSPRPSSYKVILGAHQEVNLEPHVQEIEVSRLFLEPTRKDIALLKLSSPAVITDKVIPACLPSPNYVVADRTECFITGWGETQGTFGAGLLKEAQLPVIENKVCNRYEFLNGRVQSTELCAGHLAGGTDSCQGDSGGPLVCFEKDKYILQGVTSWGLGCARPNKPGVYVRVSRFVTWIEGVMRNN
T6 sequence (P20918 98-581 limits assumed, chain 1 of 2): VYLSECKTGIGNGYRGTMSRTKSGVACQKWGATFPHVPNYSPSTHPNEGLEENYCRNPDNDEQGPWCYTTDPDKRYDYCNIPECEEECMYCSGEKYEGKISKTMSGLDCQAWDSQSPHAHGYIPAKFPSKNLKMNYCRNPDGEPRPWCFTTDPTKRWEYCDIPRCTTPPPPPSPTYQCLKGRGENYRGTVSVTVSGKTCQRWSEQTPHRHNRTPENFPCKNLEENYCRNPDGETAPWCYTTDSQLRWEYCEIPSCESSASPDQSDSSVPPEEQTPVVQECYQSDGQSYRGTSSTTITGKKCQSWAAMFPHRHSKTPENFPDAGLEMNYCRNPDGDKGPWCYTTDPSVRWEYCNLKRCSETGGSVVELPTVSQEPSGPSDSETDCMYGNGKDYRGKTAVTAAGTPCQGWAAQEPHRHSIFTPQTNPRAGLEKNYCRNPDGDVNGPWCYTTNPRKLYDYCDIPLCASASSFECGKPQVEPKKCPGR
T6 sequence (P20918 582-812 limits assumed, chain 2 of 2): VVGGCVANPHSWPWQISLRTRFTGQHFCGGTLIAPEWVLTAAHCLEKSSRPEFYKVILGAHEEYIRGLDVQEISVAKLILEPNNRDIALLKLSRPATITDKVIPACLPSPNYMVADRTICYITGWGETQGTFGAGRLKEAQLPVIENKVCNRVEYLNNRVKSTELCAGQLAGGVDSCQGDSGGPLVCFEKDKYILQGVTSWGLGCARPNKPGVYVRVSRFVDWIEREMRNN
T2 sequence (P00747 20-810 limits assumed): as the sequence (P00747 20-810 limits assumed) above

In the case of `NC[C@H]1CC[C@H](C(=O)O)CC1` [TXA, tranexamic acid, reference compound], the “kcat × 10^3 (s^−1) mean (95% CI)” value on plasmin [1] was 42.1 (40-44) s^−1. For the same molecule, the “effect on lysis compared to VHHs (FIG. 4C, maximum lysis rates)” value in assay [2] is given as “inhibition of lysis”. In addition, the “effect on fibrin clot formation parameters (clotting time, maximum clot firmness, maximum clot elasticity)” value in assay [3] is on record as “does not affect”. Further, at plasminogen, the “inhibition of plasmin generation at higher concentrations” value is given as “plasmin generation is blocked”. Besides, on plasmin [4] (TXA 316 μM or higher), the “maximal rate of inhibition of plasmin-mediated cleavage of FVa” value came out at 48%. The “FVa cleavage at lower TXA concentrations” value on plasmin [4] (lower TXA concentrations) was “accelerated”. Further, the “protection of plasmin from autocatalytic degradation” value at plasmin [5] is “more effective than lysine”.

B1: VHH A11 including C-terminal His6-tag (VHH)
VHH: QVQLVETGGGLVQAGGSLRLSCAASGNIFSINAMDWYRQAPGKERELVAAITSGGTTNYADSVKGRFTISRDNAKDTVYLQMNSLKPEDAAFYYCNADGYYSDYDKNLAEFNSWGQGTQVTVSS
notes: Alpaca-derived
Usually Kd stands for the free concentration of one partner at which half of the binding sites on the other are occupied at equilibrium, for simple one-to-one binding. As for B1, the “increase in plasmin peptide substrate conversion, at molar ratio of VHH over plasmin of 158” value with human plasmin [6] was around 2.5 fold. Further, the “Kcat/Km of plasmin-mediated cleavage of fluorogenic peptide substrate, VHH 1 µM” value in the assay with human plasmin [7] was 2.28e+08 M⁻¹ s⁻¹. The “kcat of plasmin-mediated cleavage of fluorogenic peptide substrate, VHH 1 µM” value with human plasmin [7] turned out to be 67200 s⁻¹. In addition, the Kd with human plasmin [8] was 4.7 nM; with human plasminogen it was above 100 nM; in the assay with mouse plasminogen it was above 1000 nM; in the assay with mouse plasmin, 87.3 nM; in assay [9], 941 nM. Moreover, the “IC50 (read off the curve)” value with human plasmin [10] was around 500 nM; in the assay with human plasmin [11] it was around 1000 nM.

B2: VHH C5 including C-terminal His6-tag (VHH)
VHH: QVQLVESGGGLVQAGGSLRLSCAASGRRFMVVAMGWYRQAPGNQRELVASITNGGTTNYAGSVKGRFTISGDSAKNTVYLHMNSLKPEDTAVYYCTTDVVFRDGNGQIQSNWGQGTQVTVSS
notes: Alpaca-derived
For B2, the “increase in plasmin peptide substrate conversion, at molar ratio of VHH over plasmin of 500” value with human plasmin [6] was around 2.5 fold. Besides, in the assay with human plasmin [7], the “Kcat/Km of plasmin-mediated cleavage of fluorogenic peptide substrate, VHH 1 µM” value stood at 2.44e+08 M⁻¹ s⁻¹. In addition, the “kcat of plasmin-mediated cleavage of fluorogenic peptide substrate, VHH 1 µM” value with human plasmin [7] worked out at 69900 s⁻¹. Further, the equilibrium dissociation constant (Kd) is 6.8 nM with human plasmin [8]; above 100 nM in the assay with human plasminogen; above 1000 nM with mouse plasminogen; 172 nM in the assay with mouse plasmin; 213 nM in assay [9]. The “IC50 (read off the curve)” value in the assay with human plasmin [12] is around 2000 nM; with human plasmin [13], around 500 nM.

These data come from patent publication US20250179215A1, “PLASMIN-BINDING VHHS” (RHEINISCHE FRIEDRICH-WILHELMS-UNIVERSITÄT BONN, priority 2022, published 2025).
